{"source": "patent CN116063478A", "about": "(BEIJING SHUNYUANTIAN BIOLOGICAL PRODUCTS CO LTD, dated 2023)", "binders": {"B1": {"name": "BRD4-3F14单抗 (antibody, V domains shown)", "VH": "VKPGGSLKLSCAASRGWVDPYRMSWVRQTPDKRLEWVAIQITGHDFDYYPDSVKGRFTISRDQDKQTLYLQMSSLKSEDTAMYYCLGPKAVKHLELWGQGTTVTVS", "VL": "DLVMTQTAPSVPVTPGESVSISCRSTAWWYVWWMLWQLYWFLQRPGQSPQLLIYVYHNLASGVPDRFSGSGSGTAFTLRISRVEAEDVGVYYCWHFPRHKCSFGSGTKLEIK"}}, "target": "重组人Bromodomain结构域结合蛋白4(BRD4,区域49-170aa)(Biovision，货号:7643-100) (human, UniProt O60885 49-170)", "assay": "BLI (Fortebio Octet), binding kinetics; format not stated"}
{"binder": "B1", "values": [{"measurement": "Kd", "value": 1.07, "unit": "nM"}]}
